Data reported in US10253076B2, “Peptides and combination of peptides for use in immunotherapy against ovarian cancer and other cancers” (immatics biotechnologies GmbH, priority 2015, dated 2019).

target: HLA-A*02:01 (Homo sapiens, UniProt P04439, D140Y/D185E/D98H/E176V/E277Q/G131W/G231S/I119V/I121R/I166T/I218V/L300P/L318F/N151K/N90K/P208A/P217A/Q86G/Q94H/R138H/R169H/T345S); assay: MHC binding assay (UV-ligand exchange, beta2m ELISA, peptide exchange yield); conditions: binding of HLA-class I restricted peptides to HLA-A*02:01, ranged by peptide exchange yield (UV-ligand exchange, β2m ELISA)
Excerpt: Candidate peptides for T cell based therapies according to the present invention were further tested for their MHC binding capacity (affinity). The individual peptide-MHC complexes were produced by UV-ligand exchange, where a UV-sensitive peptide is cleaved upon UV-irradiation, and exchanged with the peptide of interest as analyzed. Only peptide candidates that can effectively bind and stabilize the peptide-receptive MHC molecules prevent dissociation of the MHC complexes. To determine the yield of the exchange reaction, an ELISA was performed based on the detection of the light chain (β2m) of stabilized MHC complexes. The assay was performed as generally described in Rodenko et al. (Rodenko et al., 2006).
96 well MAXISorp plates (NUNC) were coated over night with 2ug/ml streptavidin in PBS at room temperature, washed 4× and blocked for 1 h at 37° C. in 2% BSA containing blocking buffer. […] Peptide-MHC monomers of the UV-exchange reaction were diluted 100 fold in blocking buffer. Samples were incubated for 1 h at 37° C., washed four times, incubated with 2ug/ml HRP conjugated anti-82m for 1 h at 37° C., washed again and detected with TMB solution that is stopped with […]. Absorption was measured at 450 nm. Candidate peptides that show a high exchange yield (preferably higher than 50%, most preferred higher than 75%) are generally preferred for a generation and production of antibodies or fragments thereof, and/or T cell receptors or fragments thereof, as they show sufficient avidity to the MHC molecules and prevent dissociation of the MHC complexes.

Peptide exchange, ″+″ (≥10% = +):
230 (ILVDWLVEV; listed as Homo sapiens) [compound 230]

Peptide exchange, ″+++″ (≥50% = +++):
12 (SLWPDPMEV; listed as Homo sapiens) [compound 12]
605 (KLYEAVPQL; listed as Homo sapiens) [compound 605]
388 (SLTIDGIRYV; listed as Homo sapiens) [compound 388]
184 (YLMDINGKMWL; listed as Homo sapiens) [compound 184]
442 (GLLGGGGVLGV; listed as Homo sapiens) [compound 442]
239 (AAFAGKLLSV; listed as Homo sapiens) [compound 239]
545 (LLADLLHNV; listed as Homo sapiens) [compound 545]
130 (FLWNGEDSALL; listed as Homo sapiens) [compound 130]
350 (ALLDVTHSELTV; listed as Homo sapiens) [compound 350]
594 (IMLKGDNITL; listed as Homo sapiens) [compound 594]
481 (GLIEDYEALL; listed as Homo sapiens) [compound 481]
280 (VLPDPEVLEAV; listed as Homo sapiens) [compound 280]
101 (ILVGGGALATV; listed as Homo sapiens) [compound 101]
262 (LLWGDLIWL; listed as Homo sapiens) [compound 262]
67 (TLLAEALVTV; listed as Homo sapiens) [compound 67]
601 (SAFPFPVTV; listed as Homo sapiens) [compound 601]
530 (VMYADIGGMDI; listed as Homo sapiens) [compound 530]
500 (SLMEDQVLQL; listed as Homo sapiens) [compound 500]
607 (RLYSGISGLEL; listed as Homo sapiens) [compound 607]
529 (LLADELITV; listed as Homo sapiens) [compound 529]
158 (KLFDVDEDGYI; listed as Homo sapiens) [compound 158]
13 (YLMDESLNL; listed as Homo sapiens) [compound 13]
182 (MLLEAPGIFL; listed as Homo sapiens) [compound 182]
514 (ILVDWLVQV; listed as Homo sapiens) [compound 514]
330 (QLALKVEGV; listed as Homo sapiens) [compound 330]
78 (SLFSSLEPQIQPV; listed as Homo sapiens) [compound 78]
16 (VLFQGQASL; listed as Homo sapiens) [compound 16]
171 (LLLPLQILL; listed as Homo sapiens) [compound 171]
194 (ALPLFVITV; listed as Homo sapiens) [compound 194]
588 (SLLPLSHLV; listed as Homo sapiens) [compound 588]
165 (SLLDEIRAV; listed as Homo sapiens) [compound 165]
613 (RLLPPGAVVAV; listed as Homo sapiens) [compound 613]
75 (GLLEVMVNL; listed as Homo sapiens) [compound 75]
82 (FLSSVTYNL; listed as Homo sapiens) [compound 82]
341 (SQIALNEKLVNL; listed as Homo sapiens) [compound 341]
183 (FGLDLVTEL; listed as Homo sapiens) [compound 183]
334 (TLTKVLVAL; listed as Homo sapiens) [compound 334]
300 (ALLGQTFSL; listed as Homo sapiens) [compound 300]
317 (SLAALVVHV; listed as Homo sapiens) [compound 317]
117 (ILPDGEDFLAV; listed as Homo sapiens) [compound 117]
578 (FLDPGGPMMKL; listed as Homo sapiens) [compound 578]
383 (ALLELENSVTL; listed as Homo sapiens) [compound 383]
521 (MLLTKLPTI; listed as Homo sapiens) [compound 521]

Peptide exchange, ″++″ (≥20% = ++):
185 (FLIDDKGYTL; listed as Homo sapiens) [compound 185]
127 (KIGDEPPKV; listed as Homo sapiens) [compound 127]
405 (ALYDVFLEV; listed as Homo sapiens) [compound 405]
18 (YLVAKLVEV; listed as Homo sapiens) [compound 18]
157 (SLNDEVPEV; listed as Homo sapiens) [compound 157]
375 (SLTETIEGV; listed as Homo sapiens) [compound 375]
43 (VLSSLEINI; listed as Homo sapiens) [compound 43]
522 (TLWYRSPEV; listed as Homo sapiens) [compound 522]
114 (SLVGEPILQNV; listed as Homo sapiens) [compound 114]
376 (AMFESSQNVLL; listed as Homo sapiens) [compound 376]
148 (ALNPEIVSV; listed as Homo sapiens) [compound 148]
81 (FLFSQLQYL; listed as Homo sapiens) [compound 81]
408 (VLDDSIYLV; listed as Homo sapiens) [compound 408]
207 (GLTSTNAEV; listed as Homo sapiens) [compound 207]
389 (LLADVTHLL; listed as Homo sapiens) [compound 389]
579 (NLMEMVAQL; listed as Homo sapiens) [compound 579]
145 (FLATSGTLAGI; listed as Homo sapiens) [compound 145]
398 (KLLEEDGTIITL; listed as Homo sapiens) [compound 398]

Peptide exchange, ″++++″ (≥75% = ++++):
55 (SLLDLETLSL; listed as Homo sapiens) [compound 55]
196 (YLYSVEIKL; listed as Homo sapiens) [compound 196]
387 (ALFQATAEV; listed as Homo sapiens) [compound 387]
349 (SLTEYLQNV; listed as Homo sapiens) [compound 349]
527 (FLLEPGNLEV; listed as Homo sapiens) [compound 527]
235 (YLNDLHEVLL; listed as Homo sapiens) [compound 235]
552 (GLLDLPFRVGV; listed as Homo sapiens) [compound 552]
126 (VLAYFLPEA; listed as Homo sapiens) [compound 126]
61 (FLQGYQLHL; listed as Homo sapiens) [compound 61]
